Measured values: patent publication US20150299265A1 (Molecular Partners, published 2015)
Changes are numbered by the printed parent chain.

B1: DARPin #12 (designed binder)
chain: MRGSHHHHHHGSDLGKKLLEAARAGQDDEVRILMANGADVNAKDFYGITPLHLAAAYGHLEIVEVLLKHGADVNAHDWNGWTPLHLAAKYGHLEIVEVLLKHGADVNAIDNAGKTPLHLAAAHGHLEIVEVLLKYGADVNAQDKFGKTAFDISIDNGNEDLAEILQKLN
notes: monovalent
B2: DARPin #18 (designed binder)
chain: MRGSHHHHHHGSDLGKKLLEAARAGQDDEVRILMANGADVNAKDEYGLTPLYLATAHGHLEIVEVLLKNGADVNAVDAIGFTPLHLAAFIGHLEIAEVLLKHGADVNAQDKFGKTAFDISIGNGNEDLAEILQKLN
notes: monovalent
B3: DARPin #4 (designed binder)
chain: MRGSHHHHHHGSDLGVKLLWAAARGQDDEVRELLKAGADVNAKDFQGITPLHIAAQSGHLEIVEVLLKAGADVNAKDVTGDTPLHLAAQHGHLEIVEVLLKAGADVNAQDERGKTPADLAADWGHEDIAEVLQKLN
notes: The list of constructs skips DARPin #4
B4: DARPin #59 (designed binder)
chain: MRGSHHHHHHGSDLGVKLLWAAARGQDDEVRELLKAGADVNAKDFQGITPLHIAATNGHLEIVEVLLKAGADVNAKDITGETPLHHAADSGHLEIVEVLLKAGADVNAQDKAGVTPADLAAAWGHEDIAEVLQKLN
notes: monovalent
B5: DARPin #6 (designed binder)
chain: B3 chain with K17N, A23T, E32I, K35A, Q46E, I48V, I53L, S57W, K114W
notes: monovalent
B6: DARPin #54 (designed binder)
chain: B3 chain with V16I, W20F, R24K, I48V, K114W
notes: monovalent
B7: DARPin #57 (designed binder)
chain: B3 chain with V16I, R24Q, E32I, K35A, I48V, I62V, K114W
notes: monovalent
B8: DARPin #55 (designed binder)
chain: B3 chain with V16I, W20I, A23S, R24H, E32I, K35A, D39N, I48V, K114W
notes: monovalent
B9: DARPin #56 (designed binder)
chain: B3 chain with V16Q, W20I, A23S, E32I, K35A, I48V, K114W, A117T
notes: monovalent
B10: DARPin #58 (designed binder)
chain: B3 chain with V16F, W20F, R24K, G25S, E32I, K35A, I48V, P50S, K114W
notes: monovalent
B11: DARPin #16 (designed binder)
chain: MRGSHHHHHHGSDLGIKLLQAANLGQDDEVRELLKAGADVNAKDSIGQTPLHWAARRGHLEIVEVLLKAGADVNAKDEYGVTPLHLAASLGHLEIVEVLLKAGADVNAQDESGETPADLAALHGHEDIAEVLQKLN
notes: monovalent
B12: DARPin #17 (designed binder)
chain: B11 chain with I16L, E32I, K35A, E111T, S112A, E114Q, L122D, H123D, E130V
notes: monovalent
B13: DARPin #10 (designed binder)
chain: MRGSHHHHHHGSDLGVKLLWAASHGQDDEVRILLAAGADVNAKDFFGITPLHQAAWGHLEIVEVLLKAGADVNAKEEDGTTPLHLAATHGHLEIVEVLLKAGADVNAQDWYGTTPADLAAWWGHEDIAEVLQKLN
notes: monovalent
B14: DARPin #14 (designed binder)
chain: MRGSHHHHHHGSDLGAKLLIAATVGQDDEVRILLAAGADVNAKDTIGHTPLHRAAFVGQLEIVEVLLKAGADVNAQDDYGWTPADLAANSGHEDIAEVLQKLN
notes: monovalent
B15: DARPin #15 (designed binder)
chain: B14 chain with I20V, V24S, T45R, H48F, Q59H, Y79F, W81H, N89S, S90L
notes: monovalent
B16: DARPin #11 (designed binder)
chain: MRGSHHHHHHGSDLGIKLLFAASRGQDDEVRILLAAGADVNAKDFEGITPLHAAARSGHLEIVEVLLKAGADVNAKDVEGWTPLHYAASYGHLEIVEVLLKAGADVNAQDNHGATPADLAAQWGHEDIAEVLQKLN
notes: monovalent

Molecular target: T1, Recombinant human HER2 ectodomain (human, UniProt P04626 23-652, biotinylated on primary amines (for SPR and crude extract ELISA))
T1 construct: extracellular domain; also called ErbB2; ectodomain of human HER2; not shown: Flag tag
Assay: SPR (ProteOn); biotinylated human HER2 on neutravidin chip, monovalent DARPin injected
Method: Protein binding kinetics of interesting purified HER2-binding DARPins were assayed by Surface Plasmon Resonance (SPR) analysis with a ProteOn array system (BioRad) using a setup, where biotinylated human HER2 was immobilized via neutravidin and the interaction was measured by adding free monovalent DARPin. The determination of Kd values was performed according to standard procedures.
SPR was measured using a ProteOn instrument (BioRad) and measurement was performed according standard procedures known to the person skilled in the art. The running buffer was PBS, pH 7.4, containing 0.005% Tween 20®. Neutravidin was covalently immobilized on a GLC chip (BioRad) to a level of about 8000 resonance units (RU). Immobilization of HER2 on the neutravidin coated chip was then performed. […] The signals (i.e. resonance unit (RU) values) of an uncoated reference cell and a reference injection (i.e. injection of running buffer only) were subtracted from the RU traces obtained after injection of […] (double-referencing). From the SRP traces obtained from the on-rate and off-rate measurements the on- and off-rate of the corresponding DARPin HER2 interaction can be determined.
Dissociation constants (Kd) were calculated from the estimated on- and off-rates using standard procedures known to the person skilled in the art.

Kd [nM]	Binder
1.41	B1
0.335	B2
0.186	B3
0.0333	B4
0.0292	B5
0.00927	B6
0.0604	B7
0.0873	B8
2	B9
0.0413	B10
2.67	B11
2.3	B12
1.03	B13
1.88	B14
0.468	B15
0.256	B16
